Data: PMC4914982
Blank lines part the entries; values can stand above or below the substance they belong to.

Tests used:
Assay in all cases: SEC + native gel or EMSA; SEC: Superdex S200 10/300 GL, PBS pH 7.4, approximately 500 ul of 1 mg/ml protein injected, UV 280 nm; semi-native PAGE: 12% SDS-PAGE, Laemmli buffer with 0.2% SDS and 12.5 mM EDTA, no beta-mercaptoethanol, samples not heated; monomer to dimer
sfGFP-N149Y = molecular target: sfGFP-N149Y
sfGFP-N149Y/Q204H = molecular target: sfGFP-N149Y/Q204H
sfGFP-N149Y/Q204H/I167T = molecular target: sfGFP-N149Y/Q204H/I167T
[1] = molecular target: sfGFP-N149Y/Q204H/I167T/I188V
sfGFP-N149Y/Q204H/I188V = molecular target: sfGFP-N149Y/Q204H/I188V
sfGFP-Q204H = molecular target: sfGFP-Q204H

Substance: sfGFP-N149Y/Q204H/I167T
stoichiometry N (sfGFP-N149Y/Q204H/I167T): 2

Substance: sfGFP-N149Y/Q204H/I167T/I188V
stoichiometry N [1]: 2

Substance: sfGFP-N149Y/Q204H/I188V
stoichiometry N (sfGFP-N149Y/Q204H/I188V): 2

Now from value to substance:

stoichiometry N (sfGFP-N149Y): 2
Substance: sfGFP-N149Y

stoichiometry N (sfGFP-N149Y/Q204H): 2
Substance: sfGFP-N149Y/Q204H

stoichiometry N (sfGFP-Q204H): 2
Substance: sfGFP-Q204H
